How the values were obtained:
H82 cells = H82 cells treated with TZIP peptide as for cell counts
Procedure: Referring to FIG. 7, a subset of H82 cells was treated with the TZIP peptide and the dye trypan blue, which is excluded from live cells. The H82 cells were otherwise treated as previously described and H82 cells used as a control were untreated. The percentages of living cells are represented by solid lines, and the percentages of dead cells are represented by dotted lines.

[1] = test system: ALS ssDNA (GGGGCC hexanucleotide repeat expanded at C9ORF72); assay: Electrophoretic mobility shift assay with ALS ssDNA; type: binding
Procedure: Infrared oligonucleotides representing a GGGGCC hexanucleotide repeat expanded at C9ORF72 in ALS patients were custom ordered and are referred to as ALS ssDNA. 4% polyacrylamide gel electrophoresis was performed using IR-labeled oligonucleotides and imaged using the Li-Cor Odyssey IR imaging instrumentation and software.
Electrophoretic Mobility Shift Assay-Various combinations of Purα, Purβ, TZIP, and IR-labeled oligonucleotides were prepared in the 5× Johnson binding buffer (Bergemann, Andrew D and Johnson, Edward M (1992), The HeLa Pur Factor Binds Single-Stranded DNA at a Specific Element Conserved in Gene Flanking Regions and Origins of DNA Replication. Molecular and Cellular Biology, vol 12:3 (1257-1265), incorporated by reference herein in its entirety), adjusted to 5 mM DTT, 5 mM EDTA, and 0.5% Tween 20. 4% polyacrylamide gel electrophoresis was performed on samples and imaged with the Li-Cor Odyssey instrumentation and software. Densitometry was performed on the DNA concentration course experiments using the Li-Cor Odyssey software.
A Kd value obtained for Purβ was complex and not readily interpretable.

H82 SCLC cells = assay: H82 SCLC cell growth, hemocytometer cell counts; type: cell-based; conditions: 10^−12 M peptide
Procedure: (§1) The peptide was tested against SCLC cells in culture. The cell lines included H82, H146, and controls. The H82 cell line has amplified c-MYC genes and H146 has increased levels of expression of c-MYC. The controls were normal epithelial cells and HeLa cells (a cervical cancer cell line with no known changes in c-MYC).
H82 SCLC cells were grown in suspension in small cell culture wells in RPMI medium with 10% fetal bovine serum. At time 0, the TZIP peptide was added to the medium at a final concentration of 10^−12 M. Control cells received no peptide. The TZIP peptide was added as a stock solution of 200 μg in 200 μL of deionized water.

HeLa cells = assay: HeLa cell growth, hemocytometer cell counts; type: cell-based; conditions: treated as described for H82 cells
Procedure: This was expected based on the lack of changes in c-MYC in HeLa cell lines. HeLa cells were grown in suspension and either treated or untreated with the TZIP peptide as described above for the H82 cells. Points were taken at different times post treatment, and cells were counted using a hemocytometer. […] This difference was expected, as HeLa cells differ from SCLC cells in many aspects of tumor suppressor gene products and presence of oncogenes.

U-87 MG cells = type: cell-based
SCLC cells = assay: Growth of SCLC cell lines treated with TZIP peptide; type: cell-based
Procedure: as §1

KG-1C cells = type: cell-based
[2] = test system: FXS ssDNA (G-rich trinucleotide DNA repeats at FMR1); assay: Electrophoretic mobility shift assay with FXS ssDNA; type: binding
Description: A GE Microspin GST purification module was used to purify GST-tagged Purα and Purβ from bacterial lysate. Polyacrylamide gel electrophoresis with SDS-Page gels and molecular markers were used to verify that GST, Purα, and Purβ were expressed and purified. Expressed proteins were detected using antibodies against Purα and Purβ, including monoclonal mouse anti-Pur antibody developed in Johnson laboratory (clone 10B12) and polyclonal antibody against Purβ (Abcam). Polyacrylamide gel electrophoresis with TBE buffer was used for gel-mobility shift assay. Infrared-labeled oligonucleotides representing G-rich trinucleotide DNA repeats at FMR1 in patients with Fragile X Syndrome (FXS) were custom ordered and are referred to herein as FXS ssDNA. Infrared-labeled oligonucleotide substrates in agarose and polyacrylamide gels were detected through the use of the Odyssey (LICOR) instrumentation and software. […] When Purα and Purβ are combined (FIG. 17), by increasing the amount of Purβ, the DNA is shifted more to the top of the gel. Therefore, there is more binding of the proteins to the DNA. […] In FIG. 19, TZIP enhances the mobility shift of ssDNA FXS in the presence of Purα.

[3] = test system: normal human epithelial cells; assay: Growth of normal epithelial cells treated with TZIP peptide; type: cell-based
[4] = test system: human prostate cancer cell lines; assay: Growth of prostate cancer cells treated with TZIP peptide; type: cell-based
[5] = test system: Tat transactivation of the HIV-1 LTR; assay: Tat transactivation of HIV-1 LTR-luciferase in U-87 MG cells; type: cell-based; conditions: peptide added exogenously to the medium; clade B LTR and Tat
Procedure: The TZIP peptide's effect on Tat's ability to transactivate the HIV-1 LTR was tested. In this experiment, U-87 MG cells were transfected with the clade B HIV-1 LTR coupled to luciferase. They were also transfected to express Tat, clade B. In the absence of Tat transfection there is no luciferase activity. […] The results in FIG. 9B document inhibition of the HIV-1 LTR at low concentrations of peptide, levels which would be acceptable in humans.

B1: novel synthetic Purα agonist peptide, 89 aa, SEQ ID NO: 1, with cell transport sequence YARAKRRQARRQIR (peptide)
chain: LASTFVTRDNKRYFMDLKENQRGRFMRVSQVGTRGYRNSLTVSYSVAWLEFRTHLCKLIDEYAKLQYARAKRRQARRQIRQQQQQQQEE
Question: With B1 as the molecule, how does the “cell killing (living/dead cells, trypan blue)” value (H82 cells) read?
Answer: killed TZIP-treated H82 cells

Question: What about the “binding of ALS repeat (qualitative)” value ([1]; DNA concentration courses) of the same molecule?
Answer: strongly bind the ALS repeat in low concentrations

Question: And the “effect of TZIP on Purα binding to ALS ssDNA” value ([1]; Purα and TZIP mixed)?
Answer: alter the binding activity of Purα

Question: What about the “effect of TZIP on Purβ binding to ALS hexanucleotide repeat” value ([1]; Purβ and TZIP mixed) of the same molecule?
Answer: greatly stimulates binding of Purβ

Question: And the Kd ([1]; densitometry of DNA concentration course)?
Answer: 0.55 nM

Question: And the “concentration at which TZIP functions cooperatively with Purα to enhance binding to the GGGGCC repeat” value ([1]; with Purα)?
Answer: less than 1 μM

Question: And the “growth of treated cells (cell counts)” value (H82 SCLC cells; after three days)?
Answer: no further growth of the treated cancer cells was evident

Question: What about the “growth inhibition (cell counts)” value (H82 SCLC cells; one day post treatment) of the same molecule?
Answer: inhibitory effects of the peptide were evident

Question: And the “effect on cell growth” value (HeLa cells)?
Answer: little effect on the growth of HeLa cells

Question: What about the “effects on growth kinetics or morphology” value (U-87 MG cells) of the same molecule?
Answer: did not display any effects on growth kinetics or morphology

Question: And the “inhibitory effect on growth, compared with other cell types” value (SCLC cells)?
Answer: consistently showed the greatest inhibitory effects

Question: And the “effects on growth kinetics or morphology” value (KG-1C cells)?
Answer: did not display any effects on growth kinetics or morphology

Question: What about the “binding / mobility shift of ssDNA FXS (qualitative)” value [2] of the same molecule?
Answer: tightly binds the FXS trinucleotide expanded repeat

Question: What about the “order of binding ssDNA FXS” value [2] of the same molecule?
Answer: TZIP>Purα>Purβ

Question: And the “effect of TZIP on Purα binding to ssDNA FXS” value ([2]; in the presence of Purα)?
Answer: greatly stimulates Purα binding

Question: And the “effect of treatment on normal cells” value [3]?
Answer: did not show any significant effects

Question: And the growth inhibition [4]?
Answer: effective at inhibiting growth of prostate cancer cells

Question: What about the “inhibition of Tat transactivation (luciferase)” value [5] of the same molecule?
Answer: transactivation is inhibited over a broad range of low concentrations

From patent US9896489B2, “Family of synthetic polynucleotide-binding peptides and uses thereof” (Eastern Virginia Medical School, priority 2012, dated 2018)
